Patent US20200306373A1 (Hoffmann-La Roche, published 2020)

T1: murine ICOS (murine, UniProt Q9WVS0 21-200)
T1 construct: in the splenocyte assays the endogenous protein on murine T cells; also called mICOS
T1 sequence: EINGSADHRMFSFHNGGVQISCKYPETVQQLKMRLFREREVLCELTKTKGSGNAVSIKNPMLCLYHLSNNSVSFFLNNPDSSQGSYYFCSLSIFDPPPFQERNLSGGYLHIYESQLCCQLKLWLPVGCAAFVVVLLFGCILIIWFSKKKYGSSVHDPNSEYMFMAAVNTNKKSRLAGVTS

B1: Fab fragment 16E09 (Fab, V domains shown)
VH: EVQLVQSGAEVKKPGESLKISCKGSGYSFTSYWIGWVRQMPGKGLEWMGIIYPGDSDTRYSPSFQGQVTISADKSISTAYLQWSSLKASDTAMYYCARSSGPYGLYLDYWGQGTLVTVSS
VL: not shown
notes: Phage-derived Fab expressed in E. coli TG1 and purified on His GraviTrap columns; also called 16E09 anti-ICOS antibody as Fab fragment; purified Fab fragment 16E09
B2: FAP-targeted mICOSL, mIgG1 DAPG, bivalent murine ICOSL (Gly47-Lys279), monovalent FAP (28H1) c-terminal fused of the heavy chain C region (Fc fusion)
chain 1: ETEVGAMVGSNVVLSCIDPHRRHFNLSGLYVYWQIENPEVSVTYYLPYKSPGINVDSSYKNRGHLSLDSMKQGNFSLYLKNVTPQDTQEFTCRVFMNTATELVKILEEVVRLRVAANFSTPVISTSDSSNPGQERTYTCMSKNGYPEPNLYWINTTDNSLIDTALQNNTVYLNKLGLYDVISTLRLPWTSRGDVLCCVENVALHQNITSISQAESFTGNNTKNPQETHNNELKGSPGSSSSSGSADGCKPCICTVPEVSSVFIFPPKPKDVLTITLTPKVTCVVVAISKDDPEVQFSWFVDDVEVHTAQTKPREEQINSTFRSVSELPIMHQDWLNGKEFKCRVNSAAFGAPIEKTISKTKGRPKAPQVYTIPPPKKQMAKDKVSLTCMITNFFPEDITVEWQWNGQPAENYKNTQPIMKTDGSYFVYSKLNVQKSNWEAGNTFTCSVLHEGLHNHHTEKSLSHSPGGGGGSGGGGSGGGGSGGGGSEVQLLESGGGLVQPGGSLRLSCAASGFTFSSHAMSWVRQAPGKGLEWVSAIWASGEQYYADSVKGRFTISRDNSKNTLYLQMNSLRAEDTAVYYCAKGWLGNFDYWGQGTLVTVSS
chain 2: ETEVGAMVGSNVVLSCIDPHRRHFNLSGLYVYWQIENPEVSVTYYLPYKSPGINVDSSYKNRGHLSLDSMKQGNFSLYLKNVTPQDTQEFTCRVFMNTATELVKILEEVVRLRVAANFSTPVISTSDSSNPGQERTYTCMSKNGYPEPNLYWINTTDNSLIDTALQNNTVYLNKLGLYDVISTLRLPWTSRGDVLCCVENVALHQNITSISQAESFTGNNTKNPQETHNNELKGSPGSSSSSGSAGSPGSSSSSGSADGCKPCICTVPEVSSVFIFPPKPKDVLTITLTPKVTCVVVAISKDDPEVQFSWFVDDVEVHTAQTKPREEQINSTFRSVSELPIMHQDWLNGKEFKCRVNSAAFGAPIEKTISKTKGRPKAPQVYTIPPPKEQMAKDKVSLTCMITNFFPEDITVEWQWNGQPAENYDNTQPIMDTDGSYFVYSDLNVQKSNWEAGNTFTCSVLHEGLHNHHTEKSLSHSPGGGGGSGGGGSGGGGSGGGGSEIVLTQSPGTLSLSPGERATLSCRASQSVSRSYLAWYQQKPGQAPRLLIIGASTRATGIPDRFSGSGSGTDFTLTISRLEPEDFAVYYCQQGQVIPPTFGQGTKVEIK
notes: also called FAP-mICOS-L; FAP-mICOSL

Key:
[1] = target: T1, murine ICOS; experiment: binding to CHO K1 cells expressing murine ICOS
[2] = target: T2, dimeric murine ICOS antigen Fc(kih) fusion molecule (murine, biotinylated at the C-terminal Avi tag (BirA co-expression)); experiment: SPR, ProteOn XPR36, 25 C, one-shot kinetics, Fab dilution series over murine ICOS protein, 1:1 Langmuir
T2 construct: also called murine ICOS proteins; biotinylated ICOS-Fc fusion protein
Description: For one-shot kinetics measurements, dilution series of purified monoclonal antibody Fab fragments were injected simultaneously along separate channels 1-5. Buffer (PBST) was injected along the sixth channel to provide an “in-line” blank for referencing. Association rate constants (kₒₙ) and dissociation rate constants (koff) were calculated using a simple one-to-one Langmuir binding model in ProteOn Manager v3.1 software by simultaneously fitting the association and dissociation sensorgrams. The equilibrium dissociation constant (KD) was calculated as the ratio koff/kₒₙ (Table 18).

[3] = target: T3, murine FAP (mFAP) (murine, UniProt P97321 1-761); experiment: flow cytometry on 3T3-mFAP cells
T3 construct: Expressed on 3T3-mFAP / NIH/3T3-moFAP cl.34 cells; also called mouse FAP; moFAP
Description: (§1) The staining was fixed for 20 min at 4° C. in the dark, using 75 μl of 1% PFA in FACS buffer per well. Fluorescence was analyzed by FACS using a FACS Fortessa (Software FACS Diva). Binding curves were obtained using GraphPadPrism6 and are shown in FIGS. 6A-6C and 7A-7B, respectively.

[4] = target: T1, murine ICOS; experiment: flow cytometry on CHO-K1 transfectants expressing murine ICOS
Description: as §1

[5] = target: T3, murine FAP (mFAP); experiment: flow cytometry on 3T3-mFAP cells stably overexpressing murine FAP, median fluorescence intensity
Description: as §1

T3 sequence (P97321 whole entry): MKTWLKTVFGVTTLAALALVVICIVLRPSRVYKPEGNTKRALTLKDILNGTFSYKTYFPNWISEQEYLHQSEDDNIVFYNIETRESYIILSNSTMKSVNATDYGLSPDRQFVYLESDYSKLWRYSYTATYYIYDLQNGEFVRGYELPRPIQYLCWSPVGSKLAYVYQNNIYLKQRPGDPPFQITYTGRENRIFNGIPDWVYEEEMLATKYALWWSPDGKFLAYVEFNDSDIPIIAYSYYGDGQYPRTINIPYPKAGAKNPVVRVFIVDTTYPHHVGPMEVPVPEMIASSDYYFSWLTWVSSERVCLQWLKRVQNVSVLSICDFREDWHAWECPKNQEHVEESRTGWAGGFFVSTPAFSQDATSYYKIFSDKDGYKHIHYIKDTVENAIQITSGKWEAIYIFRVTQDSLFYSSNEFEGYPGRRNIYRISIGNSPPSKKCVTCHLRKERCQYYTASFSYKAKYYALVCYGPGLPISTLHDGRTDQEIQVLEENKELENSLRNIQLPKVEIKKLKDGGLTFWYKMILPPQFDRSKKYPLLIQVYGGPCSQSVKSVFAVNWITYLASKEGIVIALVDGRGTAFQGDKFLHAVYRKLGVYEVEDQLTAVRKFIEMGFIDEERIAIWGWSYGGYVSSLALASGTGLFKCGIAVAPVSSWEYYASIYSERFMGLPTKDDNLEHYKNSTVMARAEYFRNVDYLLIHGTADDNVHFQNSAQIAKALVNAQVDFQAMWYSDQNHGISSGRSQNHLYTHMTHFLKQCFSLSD

| Binder | binding result [1] | Kd [2] [nM] | EC50 [3] [nM] | EC50 [4] [nM] | EC50 (read off the curve) [5] [nM] |
| --- | --- | --- | --- | --- | --- |
| B1 | binds | 293 |  |  |  |
| B2 |  |  | 71.8 | 28.1 | ~30 |
